Assay [1] deals with T1, recombinant mouse sTNFR1 (mouse, UniProt P25118 30-212).
T1 construct: mouse TNF receptor 1 (TNFR1), soluble form; The methods call the protein amine-coupled to the CM5 chip only 'recombinant mouse TNFR1'; also called mouse TNFR1; mTNFR1; source: bought: R&D Systems (425-R1/CF)
T1 sequence (looked up): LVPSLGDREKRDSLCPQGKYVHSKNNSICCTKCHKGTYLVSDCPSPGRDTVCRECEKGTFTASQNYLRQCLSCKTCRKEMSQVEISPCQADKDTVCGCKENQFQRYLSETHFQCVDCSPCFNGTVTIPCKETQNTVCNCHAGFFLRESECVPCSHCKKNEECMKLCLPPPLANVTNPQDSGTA
In words: SPR; Biacore T200, HBS-EP+, 25°C; mouse or human TNFR1 amine-coupled on CM5 chip; DMS5540 injected at 7 concentrations, 2-fold dilutions from 16 nM to 0.125 nM, 50 μl/min; 1:1 binding model. The settings on record: both partners purified.

The target in assay [2] is T1, recombinant mouse sTNFR1. Nature of the assay: cell-based or functional assay.

Broadly, the Kd is the concentration at which binding is half-saturated. For orientation: koff means the first-order rate constant of dissociation. By kon is commonly meant a measure of how fast the partners come together.

B1: DMS5540 (bispecific antibody)
chain: EVQLLESGGGLVQPGGSLRLSCAASGFTFNRYSMGWLRQAPGKGLEWVSRIDSYGRGTYYEDPVKGRFSISRDNSKNTLYLQMNSLRAEDTAVYYCAKISQFGSNAFDYWGQGTQVTVSSASTDIQMTQSPSSLSASVGDRVTITCRASRPIGTMLSWYQQKPGKAPKLLILFGSRLQSGVPSRFSGSGSGTDFTLTISSLQPEDFATYYCAQAGTHPTTFGQGTKVEIKR
notes: anti-mouse TNFR1 VH dAb DOM1m-21-23; three residue linker (Ala-Ser-Thr); About 25 kDa; two human single variable domains on one chain; also called mouse TNFR1 antagonist; genetic fusion of DOM1m-21-23 with the AlbudAb DOM7h-11-12; source: E. coli BL21(DE3) strain derivatives, purified from culture supernatant (Protein-A, cation exchange, SEC when necessary)
On to B1, for which, in the assay with recombinant mouse sTNFR1 [1], the Kd came to 0.27 nM, the koff is 0.000217 s⁻¹ and the kon came to 798000 M⁻¹ s⁻¹. Further, the “EC50 of inhibition of mouse TNF-α (20 pg/ml) induced cytotoxicity in mouse L929 cells” value with recombinant mouse sTNFR1 [2] stood at 1.3 nM.

B2: DOM1m-21-23 (antibody, V domains shown)
VH: EVQLLESGGGLVQPGGSLRLSCAASGFTFNRYSMGWLRQAPGKGLEWVSRIDSYGRGTYYEDPVKGRFSISRDNSKNTLYLQMNSLRAEDTAVYYCAKISQFGSNAFDYWGQGTQVTVSS
Take B2: in the assay with recombinant mouse sTNFR1 [2], the “EC50 of inhibition of mouse TNF-α (20 pg/ml) induced cytotoxicity in mouse L929 cells” value came to 1.7 nM.

For the origin of these results see paper PMC4564187, “Pharmacokinetic and Pharmacodynamic Characterisation of an Anti-Mouse TNF Receptor 1 Domain Antibody Formatted for In Vivo Half-Life Extension” (PLoS ONE, 2015).
